Values belong to the binder of their own block, whether it stands above or below them.
What was measured:
[1] = target: T1, biotinylated alpha-synuclein peptide, residues 111-140 (human, biotinylated (position not given)); test: Octet biolayer interferometry, biotinylated peptide on streptavidin biosensor
T1 construct: also called syn111-140

[2] = target: T2, biotinylated alpha-synuclein peptide, residues 121-140 (human, biotinylated (position not given)); test: Octet biolayer interferometry; table of peptide regions bound by anti-synuclein mAbs
T2 construct: also called syn121-140

[3] = target: full-length (140 amino acid) human alpha-synuclein with C-terminal AviTag, biotinylated, his-tag removed by … (human, UniProt P37840 1-140); test: isothermal titration calorimetry in PBS, antibody:synuclein (1:2) model; Kd only on the graph
Experimental: FIGS. 5A-5C show affinity binding of human anti-synuclein antibodies for full-length synuclein protein as determined by isothermal titration calorimetry (ITC). […] The thermodynamic parameters and the equilibrium dissociation constants, Kd, were determined upon fitting the ITC data to a model assuming a single set of binding sites corresponding to an antibody:synuclein (1:2) binding model. Continuous lines represent the best fit of experimental data assuming a single set of binding sites. Experiments were performed in PBS. Equilibrium dissociation constants (Kd) are shown on the individual graphs.
The affinities of antibodies for full length synuclein protein were determined in solution on a MicroCal Auto-iTC200 system (Malvern Panalystical; Malvern, United Kingdom). […] The thermodynamic parameters and the equilibrium dissociation constants, Kd, were determined upon fitting the ITC data to a model assuming a single set of binding sites corresponding to an antibody:synuclein (1:2) binding model (FIG. 5).

- binding result [1]: binds
- binding result [2]: binds
- binding result [3]: binds
B1: human anti-alpha-synuclein antibody 323.1 (hantiAsyn-323.1) (antibody, V domains shown)
VH: EVQLLESGGGLVQPGGSLKLSCAASGFTFSASAMHWVRQTSDKRLEWVGRIRNKANNYATAYAASVKGRFTISRDDSKNTAYLQMNSLKTEDTAVYYCTRHLSLGGNSVDYWGQGTPVTVSS
VL: DVVMTQSPLSSPVTLGQPASISCRASQSPVHSDGNTYLSWLQQRPGQPPRLLIYTISNRFPGVPDRFSGSGAGTDFTLRISRVEAEDVGVYYCMQGTQFPYTFGQGTKLEIK

- binding result [1]: binds
- binding result [3]: binds
B2: human anti-alpha-synuclein antibody 336.1 (hantiAsyn-336.1) (antibody, V domains shown)
VH: EVQLVQSGGTLVQPGGSLRLSCAASGFTFSTYAISWVRQAPGRGLEWVSFITGDGSRILYADSVRGRFSISRDNSKNTLYLQMNSLRTDDTAMYYCVFNHYWGQGTLVTVSS
VL: AIQLTQSPDSLAVSLGERATINCKASQSLLYSSNNRNYLAWYQQKPGQPPKALIYWASTRESGVPDRFSGSGSGTDFTLTISSLQAEDVAVYYCHQYYTTHSFGQGTKLEIK

Source: US20210347868A1 (published 2021)
